B1: truncated mSin3a, amino acids 297-529 (PAH2-3) (other, UniProt Q60520 297-529, looked up)
chain: QNNQPVEFNHAINYVNKIKNRFQGQPDIYKAFLEILHTYQKEQRNAKEAGGNYTPALTEQEVYAQVARLFKNQEDLLSEFGQFLPDANSSVLLSKTTAEKVDSVRNDHGGTVKKPQLNNKPQRPSQNGCQIRRHSGTGATPPVKKKPKLMSLKESSMADASKHGVGTESLFFDKVRKALRSAEAYENFLRCLVIFNQEVISRAELVQLVSPFLGKFPELFNWFKNFLGYKESV
notes: range 297-529
B2: truncated mSin3a, amino acids 112-192 (paired amphipathic helix 1) (other, UniProt Q60520 112-192, looked up)
chain: VQGQQQFQRLKVEDALSYLDQVKLQFGSQPQVYNDFLDIMKEFKSQSIDTPGVISRVSQLFKGHPDLIMGFNTFLPPGYKI
notes: range 112-192; Printed PAM is read as PAH1; also called PAM (so in the source); PAH1
B3: truncated mSin3a, amino acids 297-386 (PAH 2) (other, UniProt Q60520 297-386, looked up)
chain: QNNQPVEFNHAINYVNKIKNRFQGQPDIYKAFLEILHTYQKEQRNAKEAGGNYTPALTEQEVYAQVARLFKNQEDLLSEFGQFLPDANSS
notes: range 297-386

Biological target: T1, GST p53 (amino acids 1-393), GST fusion protein of full-length p53 (human, UniProt P04637 1-393)
T1 construct: not shown: glutathione S-transferase (GST) fusion partner
Experiment: in vitro interaction of truncated mSin3a with GST p53
Protocol: GST-fusion proteins were prepared from E. coli cells as described (Murphy et al., Genes & Devel. 10:2971–2980, 1996). One microgram of GST or fusion protein was bound to glutathione sepharose beads and incubated with 10 uL of ^35S methionine labeled, in vitro translated proteins generated in a coupled transcription/translation system (TNT, Promega). Binding occurred in 300 uL of binding buffer (20 mM Hepes pH 7.9/150 mM KC1/1 mM EDTA/4 mM MgC12/1 mM DTT/0.02% NP-40/10% glycerol) supplemented with protease inhibitors. Proteins were bound for 30 minutes at 4 degrees, and bound complexes were washed three times in wash buffer with constant vortexing (20 mM Hepes pH 7.9/150 mM KC1/1 mM EDTA/4 mM MgCl2/1 mM DTT/0.1% NP-40/10% glycerol). Bound proteins were eluted in 1× Laemmli sample buffer and separated on 7.5% or 10% SDS-PAGE. […] Bound complexes were washed twice in NP-40 buffer, once in RIPA buffer, and resolved on SDS-PAGE.

T1 sequence (P04637 whole entry, the tested form may be a part): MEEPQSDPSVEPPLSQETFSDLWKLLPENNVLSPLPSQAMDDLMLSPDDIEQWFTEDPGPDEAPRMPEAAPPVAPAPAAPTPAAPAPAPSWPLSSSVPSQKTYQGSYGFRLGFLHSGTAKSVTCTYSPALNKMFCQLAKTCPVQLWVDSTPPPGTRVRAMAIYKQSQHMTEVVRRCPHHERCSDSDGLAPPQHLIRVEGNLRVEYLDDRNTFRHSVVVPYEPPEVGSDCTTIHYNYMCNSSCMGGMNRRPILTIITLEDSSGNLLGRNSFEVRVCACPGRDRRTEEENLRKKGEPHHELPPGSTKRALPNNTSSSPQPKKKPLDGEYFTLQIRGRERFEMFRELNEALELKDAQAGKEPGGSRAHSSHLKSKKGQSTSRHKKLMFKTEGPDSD

Binder	binding result
B1	binds
B2	no binding
B3	no binding
